Source: patent US20210032299A1 (Eli Lilly, published 2021)
Starred links: 1 amine or outer side, 2 acyl side, 3 side chain; linkers in the order of their positions; H or OH if unused. Non-standard residues stand in square brackets, D forms with d. Groups on a side chain read outwards from the residue. No end group written: not given here. *: point of attachment. C20 diacid = O=C(O)CCCCCCCCCCCCCCCCCCC(=O)*; γGlu = O=C(O)[C@H](CCC(=O)[*:2])N[*:1]; αMeF = C[C@](N)(Cc1ccccc1)C(=O)O; 4Pal = N[C@@H](Cc1ccncc1)C(=O)O; αMeL = CC(C)C[C@](C)(N)C(=O)O; AEEA = NCCOCCOCC(=O)O; Aib = CC(C)(N)C(=O)O

B1: Example 41 (peptide)
peptide: Y[Aib]EGT[αMeF]ISDYSIALDKK([AEEA-AEEA-γGlu-C20 diacid])HQ[Aib]DFVE[4Pal]LLETGPSSGAPPPS-NH2
modifications: N-terminus assumed
SMILES: CC[C@H](C)[C@H](NC(=O)[C@H](CO)NC(=O)[C@H](Cc1ccc(O)cc1)NC(=O)[C@H](CC(=O)O)NC(=O)[C@H](CO)NC(=O)[C@@H](NC(=O)[C@](C)(Cc1ccccc1)NC(=O)[C@@H](NC(=O)CNC(=O)[C@H](CCC(=O)O)NC(=O)C(C)(C)NC(=O)[C@@H](N)Cc1ccc(O)cc1)[C@@H](C)O)[C@@H](C)CC)C(=O)N[C@@H](C)C(=O)N[C@@H](CC(C)C)C(=O)N[C@@H](CC(=O)O)C(=O)N[C@@H](CCCCN)C(=O)N[C@@H](CCCCNC(=O)COCCOCCNC(=O)COCCOCCNC(=O)CC[C@H](NC(=O)CCCCCCCCCCCCCCCCCCC(=O)O)C(=O)O)C(=O)N[C@@H](Cc1c[nH]cn1)C(=O)N[C@@H](CCC(N)=O)C(=O)NC(C)(C)C(=O)N[C@@H](CC(=O)O)C(=O)N[C@@H](Cc1ccccc1)C(=O)N[C@H](C(=O)N[C@@H](CCC(=O)O)C(=O)N[C@@H](Cc1ccncc1)C(=O)N[C@@H](CC(C)C)C(=O)N[C@@H](CC(C)C)C(=O)N[C@@H](CCC(=O)O)C(=O)N[C@H](C(=O)NCC(=O)N1CCC[C@H]1C(=O)N[C@@H](CO)C(=O)N[C@@H](CO)C(=O)NCC(=O)N[C@@H](C)C(=O)N1CCC[C@H]1C(=O)N1CCC[C@H]1C(=O)N1CCC[C@H]1C(=O)N[C@@H](CO)C(N)=O)[C@@H](C)O)C(C)C
B2: Example 42 (peptide)
peptide: Y[Aib]EGT[αMeF]ISDYSIALDKK([AEEA-AEEA-γGlu-C20 diacid])HQ[Aib]DFVE[4Pal]LLEQGPSSGAPPPS-NH2
modifications: N-terminus assumed
SMILES: CC[C@H](C)[C@H](NC(=O)[C@H](CO)NC(=O)[C@H](Cc1ccc(O)cc1)NC(=O)[C@H](CC(=O)O)NC(=O)[C@H](CO)NC(=O)[C@@H](NC(=O)[C@](C)(Cc1ccccc1)NC(=O)[C@@H](NC(=O)CNC(=O)[C@H](CCC(=O)O)NC(=O)C(C)(C)NC(=O)[C@@H](N)Cc1ccc(O)cc1)[C@@H](C)O)[C@@H](C)CC)C(=O)N[C@@H](C)C(=O)N[C@@H](CC(C)C)C(=O)N[C@@H](CC(=O)O)C(=O)N[C@@H](CCCCN)C(=O)N[C@@H](CCCCNC(=O)COCCOCCNC(=O)COCCOCCNC(=O)CC[C@H](NC(=O)CCCCCCCCCCCCCCCCCCC(=O)O)C(=O)O)C(=O)N[C@@H](Cc1c[nH]cn1)C(=O)N[C@@H](CCC(N)=O)C(=O)NC(C)(C)C(=O)N[C@@H](CC(=O)O)C(=O)N[C@@H](Cc1ccccc1)C(=O)N[C@H](C(=O)N[C@@H](CCC(=O)O)C(=O)N[C@@H](Cc1ccncc1)C(=O)N[C@@H](CC(C)C)C(=O)N[C@@H](CC(C)C)C(=O)N[C@@H](CCC(=O)O)C(=O)N[C@@H](CCC(N)=O)C(=O)NCC(=O)N1CCC[C@H]1C(=O)N[C@@H](CO)C(=O)N[C@@H](CO)C(=O)NCC(=O)N[C@@H](C)C(=O)N1CCC[C@H]1C(=O)N1CCC[C@H]1C(=O)N1CCC[C@H]1C(=O)N[C@@H](CO)C(N)=O)C(C)C
B3: Example 45 (peptide)
peptide: Y[Aib]EGTFISDYSI[αMeL]LDKK([AEEA-AEEA-γGlu-C20 diacid])HQ[Aib]DFVE[4Pal]LLETGPSSGAPPPS-NH2
modifications: N-terminus assumed
SMILES: CC[C@H](C)[C@H](NC(=O)[C@H](Cc1ccccc1)NC(=O)[C@@H](NC(=O)CNC(=O)[C@H](CCC(=O)O)NC(=O)C(C)(C)NC(=O)[C@@H](N)Cc1ccc(O)cc1)[C@@H](C)O)C(=O)N[C@@H](CO)C(=O)N[C@@H](CC(=O)O)C(=O)N[C@@H](Cc1ccc(O)cc1)C(=O)N[C@@H](CO)C(=O)N[C@H](C(=O)N[C@@](C)(CC(C)C)C(=O)N[C@@H](CC(C)C)C(=O)N[C@@H](CC(=O)O)C(=O)N[C@@H](CCCCN)C(=O)N[C@@H](CCCCNC(=O)COCCOCCNC(=O)COCCOCCNC(=O)CC[C@H](NC(=O)CCCCCCCCCCCCCCCCCCC(=O)O)C(=O)O)C(=O)N[C@@H](Cc1c[nH]cn1)C(=O)N[C@@H](CCC(N)=O)C(=O)NC(C)(C)C(=O)N[C@@H](CC(=O)O)C(=O)N[C@@H](Cc1ccccc1)C(=O)N[C@H](C(=O)N[C@@H](CCC(=O)O)C(=O)N[C@@H](Cc1ccncc1)C(=O)N[C@@H](CC(C)C)C(=O)N[C@@H](CC(C)C)C(=O)N[C@@H](CCC(=O)O)C(=O)N[C@H](C(=O)NCC(=O)N1CCC[C@H]1C(=O)N[C@@H](CO)C(=O)N[C@@H](CO)C(=O)NCC(=O)N[C@@H](C)C(=O)N1CCC[C@H]1C(=O)N1CCC[C@H]1C(=O)N1CCC[C@H]1C(=O)N[C@@H](CO)C(N)=O)[C@@H](C)O)C(C)C)[C@@H](C)CC
B4: Example 43 (peptide)
peptide: Y[Aib]EGT[αMeF]ISDYSIALDKK([AEEA-AEEA-γGlu-C20 diacid])HQ[Aib]DFVE[4Pal]LLEAGPSSGAPPPS-NH2
modifications: N-terminus assumed
SMILES: CC[C@H](C)[C@H](NC(=O)[C@H](CO)NC(=O)[C@H](Cc1ccc(O)cc1)NC(=O)[C@H](CC(=O)O)NC(=O)[C@H](CO)NC(=O)[C@@H](NC(=O)[C@](C)(Cc1ccccc1)NC(=O)[C@@H](NC(=O)CNC(=O)[C@H](CCC(=O)O)NC(=O)C(C)(C)NC(=O)[C@@H](N)Cc1ccc(O)cc1)[C@@H](C)O)[C@@H](C)CC)C(=O)N[C@@H](C)C(=O)N[C@@H](CC(C)C)C(=O)N[C@@H](CC(=O)O)C(=O)N[C@@H](CCCCN)C(=O)N[C@@H](CCCCNC(=O)COCCOCCNC(=O)COCCOCCNC(=O)CC[C@H](NC(=O)CCCCCCCCCCCCCCCCCCC(=O)O)C(=O)O)C(=O)N[C@@H](Cc1c[nH]cn1)C(=O)N[C@@H](CCC(N)=O)C(=O)NC(C)(C)C(=O)N[C@@H](CC(=O)O)C(=O)N[C@@H](Cc1ccccc1)C(=O)N[C@H](C(=O)N[C@@H](CCC(=O)O)C(=O)N[C@@H](Cc1ccncc1)C(=O)N[C@@H](CC(C)C)C(=O)N[C@@H](CC(C)C)C(=O)N[C@@H](CCC(=O)O)C(=O)N[C@@H](C)C(=O)NCC(=O)N1CCC[C@H]1C(=O)N[C@@H](CO)C(=O)N[C@@H](CO)C(=O)NCC(=O)N[C@@H](C)C(=O)N1CCC[C@H]1C(=O)N1CCC[C@H]1C(=O)N1CCC[C@H]1C(=O)N[C@@H](CO)C(N)=O)C(C)C
B5: Example 44 (peptide)
peptide: Y[Aib]EGT[αMeF]ISDYSIALDKK([AEEA-AEEA-γGlu-C20 diacid])HQ[Aib]DFVE[4Pal]LLEGGPSSGAPPPS-NH2
modifications: N-terminus assumed
SMILES: CC[C@H](C)[C@H](NC(=O)[C@H](CO)NC(=O)[C@H](Cc1ccc(O)cc1)NC(=O)[C@H](CC(=O)O)NC(=O)[C@H](CO)NC(=O)[C@@H](NC(=O)[C@](C)(Cc1ccccc1)NC(=O)[C@@H](NC(=O)CNC(=O)[C@H](CCC(=O)O)NC(=O)C(C)(C)NC(=O)[C@@H](N)Cc1ccc(O)cc1)[C@@H](C)O)[C@@H](C)CC)C(=O)N[C@@H](C)C(=O)N[C@@H](CC(C)C)C(=O)N[C@@H](CC(=O)O)C(=O)N[C@@H](CCCCN)C(=O)N[C@@H](CCCCNC(=O)COCCOCCNC(=O)COCCOCCNC(=O)CC[C@H](NC(=O)CCCCCCCCCCCCCCCCCCC(=O)O)C(=O)O)C(=O)N[C@@H](Cc1c[nH]cn1)C(=O)N[C@@H](CCC(N)=O)C(=O)NC(C)(C)C(=O)N[C@@H](CC(=O)O)C(=O)N[C@@H](Cc1ccccc1)C(=O)N[C@H](C(=O)N[C@@H](CCC(=O)O)C(=O)N[C@@H](Cc1ccncc1)C(=O)N[C@@H](CC(C)C)C(=O)N[C@@H](CC(C)C)C(=O)N[C@@H](CCC(=O)O)C(=O)NCC(=O)NCC(=O)N1CCC[C@H]1C(=O)N[C@@H](CO)C(=O)N[C@@H](CO)C(=O)NCC(=O)N[C@@H](C)C(=O)N1CCC[C@H]1C(=O)N1CCC[C@H]1C(=O)N1CCC[C@H]1C(=O)N[C@@H](CO)C(N)=O)C(C)C

What follows are binders tested against human glucagon receptor (human, UniProt P47871 26-477) (assay: cell-based or functional assay).
Chain of human glucagon receptor (P47871 26-477): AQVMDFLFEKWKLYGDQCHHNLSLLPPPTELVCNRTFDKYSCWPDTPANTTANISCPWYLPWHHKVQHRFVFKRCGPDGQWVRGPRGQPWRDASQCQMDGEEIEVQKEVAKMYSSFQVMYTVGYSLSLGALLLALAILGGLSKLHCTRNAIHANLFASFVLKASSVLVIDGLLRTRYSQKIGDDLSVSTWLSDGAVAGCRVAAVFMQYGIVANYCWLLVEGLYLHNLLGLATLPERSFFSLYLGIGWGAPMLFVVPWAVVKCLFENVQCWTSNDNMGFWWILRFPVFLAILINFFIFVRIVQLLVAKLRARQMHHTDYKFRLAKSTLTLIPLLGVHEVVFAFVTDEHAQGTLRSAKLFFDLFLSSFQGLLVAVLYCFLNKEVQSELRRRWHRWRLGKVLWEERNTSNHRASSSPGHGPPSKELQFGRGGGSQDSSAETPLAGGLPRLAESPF

B1 and B2 cannot be ordered by “hGcgR cAMP Rel EC50” value: over 5000 nM for the first, over 5000 nM for the second.

Compared with B3, B4 is higher in “hGcgR cAMP Rel EC50” value: 1690 nM for the first, over 5000 nM for the second.

B5 was tested, and the “hGcgR cAMP Rel EC50” value was over 5000 nM.

Each binder was assayed against T1, human glucose-dependent insulinotropic peptide receptor (human, UniProt P48546 22-466) (assay: cell-based or functional assay).
T1 sequence (looked up): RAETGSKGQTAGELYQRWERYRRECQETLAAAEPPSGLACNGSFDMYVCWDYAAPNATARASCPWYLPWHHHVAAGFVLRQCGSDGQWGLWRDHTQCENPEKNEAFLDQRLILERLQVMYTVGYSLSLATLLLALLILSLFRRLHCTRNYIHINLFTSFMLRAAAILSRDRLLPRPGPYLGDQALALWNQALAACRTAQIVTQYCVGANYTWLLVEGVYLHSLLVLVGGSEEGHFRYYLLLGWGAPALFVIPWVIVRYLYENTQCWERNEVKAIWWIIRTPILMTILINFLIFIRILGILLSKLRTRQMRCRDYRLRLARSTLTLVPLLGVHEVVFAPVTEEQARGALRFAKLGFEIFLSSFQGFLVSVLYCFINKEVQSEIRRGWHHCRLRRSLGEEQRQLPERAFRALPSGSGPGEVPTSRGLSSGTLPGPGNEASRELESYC

Going from B1 to B2, the “hGIPR cAMP Rel EC50” value falls from 0.0281 nM to 0.0091 nM (3.1-fold).

First: B3
Second: B4
The “hGIPR cAMP Rel EC50” value of the first is 3.2-fold higher: 0.049 nM for the first, 0.0154 nM for the second.

For B5, the “hGIPR cAMP Rel EC50” value was 0.0084 nM.

What follows are binders tested against human GLP-1 receptor (human, UniProt P43220 24-463) (assay: cell-based or functional assay).

First: B1
Second: B2
The “hGLP1R cAMP Rel EC50” value of the first is 2.2-fold higher: 1800 nM for the first, 815 nM for the second.

First: B3
Second: B4
The “hGLP1R cAMP Rel EC50” value of the first is higher: over 5000 nM for the first, 1020 nM for the second.

With B5 the “hGLP1R cAMP Rel EC50” value was 1180 nM.
